Values quoted from earlier work, collected in PMC11168107.
pKd: −log10 of the molar value. Like-named read-outs stand apart in the source and are kept apart here.

What was measured:
Bin1 SH3 (Homo sapiens) [1] = target: Bin1 SH3 (Homo sapiens) (UniProt O00499)
Bin1 SH3 (Homo sapiens) [2] = target: Bin1 SH3 (Homo sapiens) (UniProt O00499); remark: listed apart in the source

UniProt O00499, sequence (O00499 517-593): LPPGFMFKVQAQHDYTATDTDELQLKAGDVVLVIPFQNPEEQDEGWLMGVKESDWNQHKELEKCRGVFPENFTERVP

| pKd (Bin1 SH3 (Homo sapiens) [1]) | pKd (Bin1 SH3 (Homo sapiens) [2]) | Substance |
| --- | --- | --- |
| 4.48 |  | MYC 1-88 (from UniProt P01106) |
|  | 5.38 | MYC 55-68 (from UniProt P01106) |
